Test results reported in PMC11480844.

B1: H2-Kb / B3 (parent)
chain 1: GQQVKQSSPSLTVQEGGISILNCDYENDMFDYFAWYKKYPDNSPTLLISVRSNVDKREDGRLTVFLNKSGKHFSLHITASQPEDTAVYLCAAGNTGYQNFYFGKGTSLTVIP
chain 2: DSGVVQSPRHIIKEKGGRSVLTCIPISGHSNVVWYQQTLGKELKFLIQHYEKVERDKGFLPSRFSVQQFDDYHSEMNMSALELEDSAMYFCASSSLQGARNQAPLFGEGTRLSVL
chain 3: not shown
chain 4: IQKTPQIQVYSRHPPENGKPNILNCYVTQFHPPHIEIQMLKNGKKIPKVEMSDMSFSKDWSFYILAHTEFTPTETDTYACRVKHDSMAEPKTVYWDRDM
chain 5: SIINFEKL
B2: H2-Kb / B14 (parent)
chain 1: GEQVEQRPPHLSVREGDSAVIICTYTDPNSYYFFWYKQEPGAGLQLLMKVFSSTEINEGQGFTVLLNKKDKQLSLNLTAAHPGDSAVYFCAVSARGNMGYKLTFGTGTSLLVDP
chain 2: GGIITQTPKFLIGQEGQKLTLKCQQNFNHDTMYWYRQDSGKGLRLIYYSITENDLQKGDLSEGYDASREKKSSFSLTVTSAQKNEMAVFLCASSMGQGASDYTFGSGTRLLVI
chain 3: not shown
chain 4: B1 chain 4
chain 5: SIINFEKL

Variants of: B1
Assay: % of reporter cells activated (NFAT-GFP), raw
Conditions: with B3; scale: % of reporter cells activated
Note: test concentration or dose not given here.

Ratio to parent, by site and new letter:
chain 5 I3: P 1.7, Q 0.614, G 0.273, N 0.35, V 0.59, R 0.0152, F 0.216, A 0.585, W 0.28, S 1.32, M 1.73, K 0.322, D 0.144, Y 0.153, C 0.787, L 1.21, E 0.956, T 0.509, H 0.787
chain 5 L8: Y 0.619, G 0.264, F 0.341, S 0.287, V 0.793, P 0.463, A 0.21, I 0.902, N 0.885, H 0.547, T 0.7, W 0.462, D 0.434, C 0.526, R 0.837, Q 0.258, K 0.331, M 0.809, E 0.448
chain 5 I2: E 0.706, H 0.323, T 2.16, N 0.605, F 0.945, M 0.465, L 1.35, W 0.631, A 1.67, R 0.777, S 1.73, K 0.551, V 1.39, P 0.386, Q 0.228, G 1.01, C 1.29, D 1.57, Y 0.308
chain 5 E6: M 0.793, V 2.28, Y 1.97, D 1.39, P 1.43, Q 0.961, H 0.651, K 0.587, C 2.48, F 2.13, I 0.819, A 2.48, W 2.6, L 0.766, R 0.469, S 1.25, T 1.87, N 0.831, G 1.37
chain 5 N4: C 0.164, H 0.293, M 0.133, D 0.118, A 0.143, R 0.181, L 0.204, F 0.255, K 0.189, Y 0.0862, V 0.132, Q 0.0254, W 0.176, S 0.222, E 0.188, I 0.183, P 0.196, T 0.137, G 0.158
chain 5 S1: E 0.216, V 0.34, C 0.181, N 0.0477, F 0.18, L 0.118, H 0.259, K 0.356, M 0.195, A 0.221, G 0.192, P 0.303, Q 0.266, Y 0.576, T 0.194, D 0.229, W 0.138, R 0.101, I 0.207
chain 5 F5: W 0.399, M 0.771, D 0.272, L 0.842, S 0.263, H 0.428, N 0.305, R 0.0406, Q 0.343, C 0.411, V 0.38, Y 0.918, T 0.842, K 0.121, G 0.197, I 0.467, A 0.437, E 0.207, P 0.228
chain 5 K7: R 0.199, M 0.315, P 0.263, E 0.175, L 0.488, N 0.601, Q 0.201, V 0.215, I 0.37, C 0.201, W 0.634, S 0.219, F 0.28, T 0.253, D 0.0872, H 0.553, Y 0.313, G 0.0497, A 0.18

Variants of: B2
Assay: % of reporter cells activated (NFAT-GFP), raw
Conditions: with B14; scale: % of reporter cells activated

Ratio to parent of substitutions, site by site:
chain 5 S1: N 0.231, A 0.942, T 1.42, V 8.49, G 0.596, H 1.24, K 0.564, D 1.38, E 0.867, I 0.76, M 0.444, Q 0.858, C 1.42, Y 1.33, R 2.04
